Source: patent US20120003235A1 (published 2012)

Columns and labels:
[1] = target: T1, soluble Flag-tagged LTα1β2 (UniProt P01374 35-205, limits assumed); assay: SPR (Biacore 3000), Flag-LTα1β2 captured on anti-Flag M2 chip; apparent affinity of intact antibody
T1 construct: Soluble, Flag-tagged heterotrimer captured on anti-Flag M2 in Biacore; also called Ligand
T1 sequence 1: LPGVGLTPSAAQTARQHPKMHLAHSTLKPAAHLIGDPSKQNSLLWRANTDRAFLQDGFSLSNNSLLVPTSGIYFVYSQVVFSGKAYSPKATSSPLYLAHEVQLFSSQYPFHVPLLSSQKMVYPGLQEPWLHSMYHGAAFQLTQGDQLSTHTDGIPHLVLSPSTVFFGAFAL
T1 sequence 2: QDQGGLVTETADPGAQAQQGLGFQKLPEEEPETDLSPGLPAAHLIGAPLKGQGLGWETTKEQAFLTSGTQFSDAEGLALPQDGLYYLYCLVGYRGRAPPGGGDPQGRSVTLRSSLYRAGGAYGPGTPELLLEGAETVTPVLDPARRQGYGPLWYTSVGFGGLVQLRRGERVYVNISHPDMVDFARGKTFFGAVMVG

[2] = target: T1, soluble Flag-tagged LTα1β2; assay: SPR (Biacore 3000), Flag-LTα1β2 captured on anti-Flag M2 chip; LTβR binding site 1
[3] = target: T1, soluble Flag-tagged LTα1β2; assay: SPR (Biacore 3000), Flag-LTα1β2 captured on anti-Flag M2 chip; LTβR binding site 2
[4] = target: T1, soluble Flag-tagged LTα1β2; assay: SPR (Biacore 3000), Flag-LTα1β2 captured on anti-Flag M2 chip; Fab fragment

B1: mAb 9B4 (antibody, V domains shown)
VH: QVTLKESGPGILQPSQTLSLTCSFSGFSLSTSGMGVSWIRQPSGKGLEWLAHIYWDDDKRYNPSLRSRLTISKDTSRNQVFLKITSVDTADTATYYCARREGYYGSSFDFDVWGAGTTVTVSS
VL: QIVLSQSPAILSASPGEKVTMTCRASSSVSYMIWYQQKPGSSPKPWIYATSSLASGVPTRFSGSGSGTSYSLTISRVEAADAATYYCQQWSYNPLTFGAGTKLELK
notes: Murine monoclonal antibody; only mature variable domains printed; kappa light chain; also called LT 9B4; LT9B4
Kd [1]: ≤ 0.3 nM

B2: mAb LT102 (P1G8.2) (antibody, V domains shown)
VH: EVKLVESGGGLVKPGGSLKLSCAVSGFTFSDYYMYWIRQTPEKRLEWVATIGDGTSYTHYPDSVQGRFTISRDYATNNLYLQMTSLRSEDTALYYCARDLGTGPFAYWGQGTLVTVSA
VL: DVLMTQTPRSLPVSLGDQASISCRSSQNIVHSNGNTYLEWYLQKPGQSPKLLIYKVSNRFSGVPDRFSGSGSGTDFTLKISRVEAEDLGVYYCFQGSHFPWTFGGGTKLEIK
notes: only mature variable domains printed; also called LT012
Kd [1]: ≤ 0.3 nM

B3: monomeric LTβR (receptor, UniProt P36941 28-227, looked up)
chain: SQPQAVPPYASENQTCRDQEKEYYEPQHRICCSRCPPGTYVSAKCSRIRDTVCATCAENSYNEHWNYLTICQLCRPCDPVMGLEEIAPCTSKRKTQCRCQPGMFCAAWALECTHCELLSDCPPGTEAELKDEVGKGNNHCVPCKAGHFQNTSSPSARCQPHTRCENQGLVEAAPGTAQSDTTCKNPLEPLPPEMSGTMLM
notes: Injected at 20 µM in Biacore; also called LTbR
Kd [2]: ~50 nM
Kd [3]: ~1500 nM

B4: mAb LT105 (P2E9.7) (antibody, V domains shown)
VH: DVQLQESGPGLVKPSQSLSLTCSVTGYSITSGYYWNWIRQFPGNKLEGMGYISYDGSNNYNPSLKNRISITRDSSKNQFFLKLNSVTAEDSGTYYCARDAYSYGMDYWGQGTSVTVSS
VL: DIVLTQSPASLAVSLGQRATISCRASESVDNYGISFMHWYQQKPGQPPKLLIYRASNLESGIPARFSGSGSRTDFTLTINPVETDDVATFYCQQSNKDPYTFGGGTKLEIK
notes: only mature variable domains printed
Kd [1]: ≤ 0.3 nM

B5: LT105 Fab fragment (Fab, V domains shown)
VH: DVQLQESGPGLVKPSQSLSLTCSVTGYSITSGYYWNWIRQFPGNKLEGMGYISYDGSNNYNPSLKNRISITRDSSKNQFFLKLNSVTAEDSGTYYCARDAYSYGMDYWGQGTSVTVSS
VL: DIVLTQSPASLAVSLGQRATISCRASESVDNYGISFMHWYQQKPGQPPKLLIYRASNLESGIPARFSGSGSRTDFTLTINPVETDDVATFYCQQSNKDPYTFGGGTKLEIK
Kd [4]: ≥ 2 nM
